In the test the target is GAL-C-SMRT (yeast) (UniProt P04386). As to the kind of experiment: cell-based or functional assay.

Values joined by “and” are separate entries in the source; they are usually repeats but may differ in a detail not shown here. Equal values may be shown once.

With VP16-PLZF (from UniProt Q05516 1-673), the UAS reporter expression, mammalian two-hybrid came out at 25 fold.

In the case of “VP-PML-RARα (from UniProt P29590 1-552; P10276 61-462)”, the fold lower sensitivity to ATRA than the SMRT/RARα interaction, mammalian two-hybrid was 100 fold and 200 fold.

Source of the values: patent US6706762.
